{"source": "patent US20100256332A1", "about": "“GLP-1 Fusion Peptides, Their Production and Use” (BIOCOMPATIBLES UK LTD, priority 2007, published 2010)", "molecules": {"B1": {"name": "GLP-1(7-37)-IP2-RR-GLP2 (peptide)", "chain": "HAEGTFTSDVSSYLEGQAAKEFIAWLVKGRGRRDFPEEVAIAEELGRRHADGSFSDEMSTILDNLATRDFINWLIQTKITDKK", "notes": "83 aa fusion peptide"}}, "test_system": "type II diabetic mice (C57BUKs-Lepr db/db)", "test": "In vivo bioactivity in type II diabetic mice", "design": "species or system mouse", "settings": "5 μg peptide s.c. twice a day, Day 2, 4, 7, 10, overnight fasted", "description": "11-week-old type II diabetic mice (C57BUKs-Lepr^db/db, Harlan) were treated with 5 μg peptide by subcutaneous injection twice a day at 9 a.m. and 5 p.m. (n=5 per group).\nBlood glucose was measured before (day 0) and after treatment with GLP^CM peptides (Day 2, 4, 7, 10) at 10 a.m. after an overnight fastening period. Data were presented in relation to blood glucose levels measured at day 0.\nBest results were obtained with recombinant SEQ ID No.:6 (CM1) and synthetic SEQ ID No.:8 (CM3). In FIG. 5 (y-axis) the relative effect of the treatment is shown. Blood glucose at day=0 was set to 1. Untreated animals undergo continuous increase in blood glucose level over time, whereas animals treated with inventive peptides display grosso modo a continuous decrease of the blood glucose level over time."}
{"molecule": "B1", "values": [{"measurement": "anti-hyperglycemia effect (blood glucose in relation to day 0)", "value": "anti-hyperglycemia effect"}]}
